Measurements: patent KR20120084755A (dated 2012)

Experiments:
RSV A2 바이러스의 F 단백질 = RSV A2 바이러스의 F 단백질 (Respiratory Syncytial Virus (RSV), …, UniProt P03420 26-574); assay: cell-based or functional assay
[1] = target: T1, RSV 긴 균주(Long strain)로부터의 HIS 태그 포함 재조합 F 단백질 (Respiratory Syncytial Virus (RSV), Long …, UniProt P12568 26-524); assay: direct ELISA, purified HIS-tagged F on Ni-NTA HisSorp plates (Fig. 3b right)
T1 construct: not shown: poly-HIS tag
T1 sequence (P12568 26-524): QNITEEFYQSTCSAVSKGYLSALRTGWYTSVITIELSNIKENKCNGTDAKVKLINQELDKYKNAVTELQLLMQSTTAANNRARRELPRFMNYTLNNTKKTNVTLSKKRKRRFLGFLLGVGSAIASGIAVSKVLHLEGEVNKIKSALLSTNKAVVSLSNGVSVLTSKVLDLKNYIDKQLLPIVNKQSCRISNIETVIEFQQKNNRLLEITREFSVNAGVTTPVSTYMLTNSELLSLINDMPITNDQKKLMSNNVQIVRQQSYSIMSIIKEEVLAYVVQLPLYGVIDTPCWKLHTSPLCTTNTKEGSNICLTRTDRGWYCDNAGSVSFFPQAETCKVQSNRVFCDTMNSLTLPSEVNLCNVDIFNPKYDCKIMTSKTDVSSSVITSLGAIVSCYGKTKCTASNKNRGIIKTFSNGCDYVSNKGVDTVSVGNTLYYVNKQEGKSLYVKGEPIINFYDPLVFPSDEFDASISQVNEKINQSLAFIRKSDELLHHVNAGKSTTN

RSV A2 바이러스의 F 단백질, sequence (P03420 26-574): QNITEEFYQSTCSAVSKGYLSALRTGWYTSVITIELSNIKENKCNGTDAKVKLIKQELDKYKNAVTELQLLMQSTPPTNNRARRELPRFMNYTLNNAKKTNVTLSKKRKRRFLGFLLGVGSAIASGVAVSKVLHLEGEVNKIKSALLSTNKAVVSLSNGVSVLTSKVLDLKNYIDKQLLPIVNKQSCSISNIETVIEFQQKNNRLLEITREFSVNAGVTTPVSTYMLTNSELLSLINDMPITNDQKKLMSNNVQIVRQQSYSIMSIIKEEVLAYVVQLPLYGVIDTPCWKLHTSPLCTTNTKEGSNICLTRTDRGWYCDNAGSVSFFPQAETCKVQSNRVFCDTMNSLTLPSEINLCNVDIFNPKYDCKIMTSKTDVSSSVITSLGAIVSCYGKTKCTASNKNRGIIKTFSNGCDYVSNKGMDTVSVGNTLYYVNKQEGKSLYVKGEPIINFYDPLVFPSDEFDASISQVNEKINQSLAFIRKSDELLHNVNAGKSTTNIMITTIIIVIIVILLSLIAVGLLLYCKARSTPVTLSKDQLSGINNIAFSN

B1: AM22 (antibody, V domains shown)
VH: QVQLVQSGAEVKKPGATVKVSCKISGHTLIKLSIHWVRQAPGKGLEWMGGYEGEVDEIFYAQKFQHRLTVIADTATDTVYMELGRLTSDDTAVYFCGTLGVTVTEAGLGIDDYWGQGTLVTVSS
VL: EIVLTQSPGTLSLSPGERATLSCRASQIVSRNHLAWYQQKPGQAPRLLIFGASSRATGIPVRFSGSGSGTDFTLTINGLAPEDFAVYYCLSSDSSIFTFGPGTKVDFK
notes: also called 재조합 AM22 mAb; AM22 항체
IC50, RSV A2 neutralisation on HEp2 cells (standard TCID50 culture assay) (RSV A2 바이러스의 F 단백질): 1.15 ng/㎖
binding result [1]: no binding
